# Source: publication PMC8046669, “Structural basis of nucleosome transcription mediated by Chd1 and FACT” (Nature Structural & Molecular Biology, 2021)
# B1: S. cerevisiae Chd1 (enzyme)
# chain: not shown
# notes: Chd1, S. cerevisiae, chromatin remodeler; 1468 residues by the printed limits of the truncations; also called full-length Chd1
# Biological target: T1, S. cerevisiae FACT (heterodimer of Spt16 and Pob3) (S. cerevisiae, UniProt P32558 1-1035; Q04636 1-552)
# T1 construct: Spt16, subunit of FACT, S. cerevisiae; Pob3, subunit of FACT, S. cerevisiae
# T1 sequence (P32558 whole entry, chain 1 of 2): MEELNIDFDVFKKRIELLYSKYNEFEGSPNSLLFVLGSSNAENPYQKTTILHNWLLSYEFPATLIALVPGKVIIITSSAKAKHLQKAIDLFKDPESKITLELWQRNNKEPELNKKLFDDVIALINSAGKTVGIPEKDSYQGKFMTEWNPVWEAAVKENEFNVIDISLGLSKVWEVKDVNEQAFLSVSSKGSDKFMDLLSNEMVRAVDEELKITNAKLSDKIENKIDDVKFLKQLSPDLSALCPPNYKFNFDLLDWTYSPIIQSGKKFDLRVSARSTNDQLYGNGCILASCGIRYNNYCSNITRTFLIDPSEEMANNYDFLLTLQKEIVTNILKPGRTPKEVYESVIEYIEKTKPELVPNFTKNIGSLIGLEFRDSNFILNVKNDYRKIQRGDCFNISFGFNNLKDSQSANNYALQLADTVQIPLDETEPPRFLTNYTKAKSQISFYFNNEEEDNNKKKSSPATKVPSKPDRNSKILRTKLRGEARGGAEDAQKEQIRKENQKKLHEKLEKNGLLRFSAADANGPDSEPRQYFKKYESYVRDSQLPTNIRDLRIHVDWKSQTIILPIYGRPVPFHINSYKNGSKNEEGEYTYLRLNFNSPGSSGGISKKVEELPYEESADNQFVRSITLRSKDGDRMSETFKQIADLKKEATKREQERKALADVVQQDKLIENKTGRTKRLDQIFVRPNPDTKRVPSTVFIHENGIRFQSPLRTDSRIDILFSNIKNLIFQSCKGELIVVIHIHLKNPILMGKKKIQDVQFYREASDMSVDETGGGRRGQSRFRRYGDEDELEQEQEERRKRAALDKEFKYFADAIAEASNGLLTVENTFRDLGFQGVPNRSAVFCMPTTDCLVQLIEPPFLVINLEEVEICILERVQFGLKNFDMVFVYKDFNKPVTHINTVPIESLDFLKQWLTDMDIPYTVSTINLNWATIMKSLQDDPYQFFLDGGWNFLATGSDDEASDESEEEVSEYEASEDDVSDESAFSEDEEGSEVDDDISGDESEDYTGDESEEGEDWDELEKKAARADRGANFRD
# T1 sequence (Q04636 whole entry, chain 2 of 2): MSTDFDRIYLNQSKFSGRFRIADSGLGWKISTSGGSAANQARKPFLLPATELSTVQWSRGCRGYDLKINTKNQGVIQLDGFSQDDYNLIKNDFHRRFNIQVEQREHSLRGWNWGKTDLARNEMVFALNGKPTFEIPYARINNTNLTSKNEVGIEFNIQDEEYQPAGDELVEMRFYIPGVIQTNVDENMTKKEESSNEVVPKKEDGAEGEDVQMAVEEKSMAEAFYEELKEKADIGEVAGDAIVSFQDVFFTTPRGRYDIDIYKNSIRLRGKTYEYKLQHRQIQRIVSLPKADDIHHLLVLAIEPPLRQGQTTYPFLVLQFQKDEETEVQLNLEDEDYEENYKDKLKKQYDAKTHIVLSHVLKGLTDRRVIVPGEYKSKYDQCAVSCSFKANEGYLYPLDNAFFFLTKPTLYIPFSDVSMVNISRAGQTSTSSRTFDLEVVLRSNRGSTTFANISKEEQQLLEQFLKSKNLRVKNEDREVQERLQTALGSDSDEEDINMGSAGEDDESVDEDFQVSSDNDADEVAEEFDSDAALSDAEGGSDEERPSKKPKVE
# Assay: SEC; size exclusion chromatography runs of Chd1 constructs with FACT, fractions analysed by SDS-PAGE
# Conditions: both partners purified
binder,measurement,value
B1,binding result,binds
